Where two headings read alike, the source gives them in different places.
Key:
AR42J cells = experiment: Cellular uptake of ^203Pb-labeled peptides; format: cell-based, rat; settings: 2 h post-incubation
Procedure: PSCTOC and PSC-PEG2-TOC were labeled with ^203Pb and purified via HPLC for high molar activities as descibed in the Supplementary Material and in Li and collaborators. The HPLC-purified ^203Pb-labeled peptides (3.4 kBq) were incubated with AR42J cells in 24-well plates (pre-coated with poly-D-lysine), which were plated at a density of 2.0 × 10^5 cells 2 days prior, in the binding medium at 37 °C for up to 120 min. The cells were then washed twice and lysed, and the radioactivities of the samples were determined (n=3).

[1] = In vivo biodistribution of ^203Pb-labeled peptides; set-up: species or system mice; settings: female, athymic nu/nu, mouse, intravenous, total radioactivity
Procedure: AR42J cells (5.0 × 10^6 cells/animal) were implanted subcutaneously on the left shoulder of female athymic nu/nu mice. […] Extra groups of mice were co-administered 37 kBq of ^203Pb-PSC-PEG2-TOC with DL-lysine (400 mg/kg) to determine the effect of amino acid on renal uptake of the radiopharmaceutical. Mice (n=3 per time point) were euthanized at 1, 3, and 24 h post-administration, and tumors and organs/tissues of interest were excised and weighed. The radioactivities of the samples were measured using the gamma counter.

## C[C@@H](O)[C@@H]1NC(=O)[C@H](CCCCN)NC(=O)[C@@H](Cc2c[nH]c3ccccc23)NC(=O)[C@H](Cc2ccc(O)cc2)NC(=O)[C@@H](NC(=O)[C@@H](Cc2ccccc2)NC(=O)CCOCCOCCNC(=O)CN2CCN(CC(=O)O)CCN(CC(N)=O)CCN(CC(=O)O)CC2)CSSC[C@@H](C(=O)N[C@H](CO)[C@@H](C)O)NC1=O [[^203Pb]Pb-PSC-PEG2-TOC, metal not drawn]
AR42J cells
  Cellular uptake, factor vs. [^203Pb]Pb-PSCTOC: 4
  Cellular uptake, fold vs. [^203Pb]Pb-DOTATOC: 21 fold
AR42J cells; 37 °C
  Cellular uptake: 18%
[1]; blood, 37 kBq, 1 h post-administration, read-out: Blood
  tissue uptake at 1 h: 0.36 ± 0.1 %ID/g
[1]; blood, 37 kBq, 3 h (No Lys), Table S4 study, read-out: Blood
  tissue uptake at 3 h: 0.07 ± 0.02 %ID/g
[1]; blood, 37 kBq, 3 h post-administration, read-out: Blood
  tissue uptake at 3 h: 0.05 %ID/g
[1]; blood, 37 kBq, 24 h post-administration, read-out: Blood
  tissue uptake at 24 h: 0.02 %ID/g
[1]; blood, 1 h, DL-lysine co-administered, read-out: Blood
  tissue uptake at 1 h: 0.36 ± 0.15 %ID/g
[1]; blood, 3 h (Blocking): 10 nmol unlabeled PSC-PEG2-TOC co-administered, read-out: Blood
  tissue uptake at 3 h: 0.13 ± 0.02 %ID/g
[1]; blood, 3 h, DL-lysine co-administered, read-out: Blood
  tissue uptake at 3 h: 0.07 ± 0.02 %ID/g
[1]; blood, DL-lysine co-administered, read-out: Blood
  tissue uptake at 6 h: 0.05 ± 0.03 %ID/g
[1]; blood, 24 h, DL-lysine co-administered, read-out: Blood
  tissue uptake at 24 h: 0.01 %ID/g
[1]; bone marrow, 37 kBq, 3 h (No Lys), Table S4 study, read-out: Bone marrow
  tissue uptake at 3 h: 4.17 ± 1.51 %ID/g
[1]; bone marrow, 1 h, DL-lysine co-administered, read-out: Bone marrow
  tissue uptake at 1 h: 2.42 ± 0.32 %ID/g
[1]; bone marrow, 3 h (Blocking): 10 nmol unlabeled PSC-PEG2-TOC co-administered, read-out: Bone marrow
  tissue uptake at 3 h: 0.99 ± 0.42 %ID/g
[1]; bone marrow, 3 h, DL-lysine co-administered, read-out: Bone marrow
  tissue uptake at 3 h: 4.13 ± 1.55 %ID/g
[1]; bone marrow, DL-lysine co-administered, read-out: Bone marrow
  tissue uptake at 6 h: 1.69 ± 0.34 %ID/g
[1]; bone marrow, 24 h, DL-lysine co-administered, read-out: Bone marrow
  tissue uptake at 24 h: 0.87 ± 0.6 %ID/g
[1]; bone, 37 kBq, 3 h (No Lys), Table S4 study, read-out: Bone
  tissue uptake at 3 h: 0.62 ± 0.24 %ID/g
[1]; bone, 1 h, DL-lysine co-administered, read-out: Bone
  tissue uptake at 1 h: 1.48 ± 0.34 %ID/g
[1]; bone, 3 h (Blocking): 10 nmol unlabeled PSC-PEG2-TOC co-administered, read-out: Bone
  tissue uptake at 3 h: 0.16 ± 0.1 %ID/g
[1]; bone, 3 h, DL-lysine co-administered, read-out: Bone
  tissue uptake at 3 h: 0.48 ± 0.05 %ID/g
[1]; bone, DL-lysine co-administered, read-out: Bone
  tissue uptake at 6 h: 0.35 ± 0.06 %ID/g
[1]; bone, 24 h, DL-lysine co-administered, read-out: Bone
  tissue uptake at 24 h: 0.16 ± 0.04 %ID/g
[1]; brain, 37 kBq, 1 h post-administration, read-out: Brain
  tissue uptake at 1 h: 0.04 ± 0.01 %ID/g
[1]; brain, 37 kBq, 3 h (No Lys), Table S4 study, read-out: Brain
  tissue uptake at 3 h: 0.08 ± 0.06 %ID/g
[1]; brain, 37 kBq, 3 h post-administration, read-out: Brain
  tissue uptake at 3 h: 0.02 %ID/g
[1]; brain, 37 kBq, 24 h post-administration, read-out: Brain
  tissue uptake at 24 h: 0.01 %ID/g
[1]; brain, 1 h, DL-lysine co-administered, read-out: Brain
  tissue uptake at 1 h: 0.04 ± 0.01 %ID/g
[1]; brain, 3 h (Blocking): 10 nmol unlabeled PSC-PEG2-TOC co-administered, read-out: Brain
  tissue uptake at 3 h: 0.03 ± 0.01 %ID/g
[1]; brain, 3 h, DL-lysine co-administered, read-out: Brain
  tissue uptake at 3 h: 0.03 ± 0.01 %ID/g
[1]; brain, DL-lysine co-administered, read-out: Brain
  tissue uptake at 6 h: 0.02 %ID/g
[1]; brain, 24 h, DL-lysine co-administered, read-out: Brain
  tissue uptake at 24 h: 0.01 %ID/g
[1]; heart, 37 kBq, 1 h post-administration, read-out: Heart
  tissue uptake at 1 h: 0.2 ± 0.05 %ID/g
[1]; heart, 37 kBq, 3 h (No Lys), Table S4 study, read-out: Heart
  tissue uptake at 3 h: 0.2 ± 0.13 %ID/g
[1]; heart, 37 kBq, 3 h post-administration, read-out: Heart
  tissue uptake at 3 h: 0.08 ± 0.02 %ID/g
[1]; heart, 37 kBq, 24 h post-administration, read-out: Heart
  tissue uptake at 24 h: 0.03 ± 0.01 %ID/g
[1]; heart, 1 h, DL-lysine co-administered, read-out: Heart
  tissue uptake at 1 h: 0.28 ± 0.08 %ID/g
[1]; heart, 3 h (Blocking): 10 nmol unlabeled PSC-PEG2-TOC co-administered, read-out: Heart
  tissue uptake at 3 h: 0.07 ± 0.03 %ID/g
[1]; heart, 3 h, DL-lysine co-administered, read-out: Heart
  tissue uptake at 3 h: 0.15 ± 0.03 %ID/g
[1]; heart, DL-lysine co-administered, read-out: Heart
  tissue uptake at 6 h: 0.07 ± 0.05 %ID/g
[1]; heart, 24 h, DL-lysine co-administered, read-out: Heart
  tissue uptake at 24 h: 0.03 ± 0.01 %ID/g
[1]; kidneys, 37 kBq, 1 h post-administration, read-out: Kidneys
  tissue uptake at 1 h: 20.6 %ID/g
[1]; kidneys, 37 kBq, 3 h (No Lys), Table S4 study, read-out: Kidneys
  tissue uptake at 3 h: 22.1 ± 1.92 %ID/g
[1]; kidneys, 37 kBq, 3 h post-administration, read-out: Kidneys
  tissue uptake at 3 h: 15.8 ± 1.11 %ID/g
[1]; kidneys, 37 kBq, 24 h post-administration, read-out: Kidneys
  tissue uptake at 24 h: 1.5 %ID/g
[1]; kidneys, 1 h, DL-lysine co-administered, read-out: Kidneys
  tissue uptake at 1 h: 13.3 ± 3.8 %ID/g
[1]; kidneys, 3 h (Blocking): 10 nmol unlabeled PSC-PEG2-TOC co-administered, read-out: Kidneys
  tissue uptake at 3 h: 40.9 ± 9.92 %ID/g
[1]; kidneys, 3 h, DL-lysine co-administered, read-out: Kidneys
  tissue uptake at 3 h: 9.84 ± 0.88 %ID/g
[1]; kidneys, DL-lysine co-administered, read-out: Kidneys
  tissue uptake at 6 h: 5.44 ± 0.63 %ID/g
[1]; kidneys, 24 h, DL-lysine co-administered, read-out: Kidneys
  tissue uptake at 24 h: 1.25 ± 0.86 %ID/g
[1]; large intestine, 37 kBq, 1 h post-administration, read-out: Large intestine
  tissue uptake at 1 h: 1.24 ± 0.12 %ID/g
[1]; large intestine, 37 kBq, 3 h (No Lys), Table S4 study, read-out: Large intestine
  tissue uptake at 3 h: 1.92 ± 0.56 %ID/g
[1]; large intestine, 37 kBq, 3 h post-administration, read-out: Large intestine
  tissue uptake at 3 h: 6.32 ± 0.68 %ID/g
[1]; large intestine, 37 kBq, 24 h post-administration, read-out: Large intestine
  tissue uptake at 24 h: 0.83 ± 0.45 %ID/g
[1]; large intestine, 1 h, DL-lysine co-administered, read-out: Large intestine
  tissue uptake at 1 h: 1.99 ± 0.31 %ID/g
[1]; large intestine, 3 h (Blocking): 10 nmol unlabeled PSC-PEG2-TOC co-administered, read-out: Large intestine
  tissue uptake at 3 h: 0.99 ± 0.46 %ID/g
[1]; large intestine, 3 h, DL-lysine co-administered, read-out: Large intestine
  tissue uptake at 3 h: 3.97 ± 0.97 %ID/g
[1]; large intestine, DL-lysine co-administered, read-out: Large intestine
  tissue uptake at 6 h: 3.34 ± 0.63 %ID/g
[1]; large intestine, 24 h, DL-lysine co-administered, read-out: Large intestine
  tissue uptake at 24 h: 1.01 ± 0.67 %ID/g
[1]; liver, 37 kBq, 1 h post-administration, read-out: Liver
  tissue uptake at 1 h: 0.36 ± 0.05 %ID/g
[1]; liver, 37 kBq, 3 h (No Lys), Table S4 study, read-out: Liver
  tissue uptake at 3 h: 0.31 ± 0.03 %ID/g
[1]; liver, 37 kBq, 3 h post-administration, read-out: Liver
  tissue uptake at 3 h: 0.23 ± 0.02 %ID/g
[1]; liver, 37 kBq, 24 h post-administration, read-out: Liver
  tissue uptake at 24 h: 0.08 ± 0.04 %ID/g
[1]; liver, 1 h, DL-lysine co-administered, read-out: Liver
  tissue uptake at 1 h: 0.44 ± 0.08 %ID/g
[1]; liver, 3 h (Blocking): 10 nmol unlabeled PSC-PEG2-TOC co-administered, read-out: Liver
  tissue uptake at 3 h: 0.3 ± 0.07 %ID/g
[1]; liver, 3 h, DL-lysine co-administered, read-out: Liver
  tissue uptake at 3 h: 0.25 ± 0.05 %ID/g
[1]; liver, DL-lysine co-administered, read-out: Liver
  tissue uptake at 6 h: 0.17 ± 0.02 %ID/g
[1]; liver, 24 h, DL-lysine co-administered, read-out: Liver
  tissue uptake at 24 h: 0.06 ± 0.01 %ID/g
[1]; lung, 37 kBq, 1 h post-administration, read-out: Lung
  tissue uptake at 1 h: 3.58 ± 1.64 %ID/g
[1]; lung, 37 kBq, 3 h (No Lys), Table S4 study, read-out: Lung
  tissue uptake at 3 h: 4.61 ± 3.75 %ID/g
